Laboratory results: the supplement of paper PMC3353916
± gives the standard deviation of the averaged measurements.

Test system: Sindbis virus TE/5'2J-GFP
Test: percent infected (GFP+ in RFP+ ISG-expressing cells); higher = more infection (less antiviral activity)
Procedure: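 Confirmatory testing of 87 ISGs. Triplicate wells of BHK/HA-Zeo (control) or BHK/NZAP-Zeo (ZAP) cells were transduced with lentiviruses co-expressing a human ISG plus TagRFP, then infected 48 h later with SINV TE/5'2J-GFP (moi 5). The % GFP+ cells among RFP+ cells was measured by flow cytometry at 8 h post infection. Fluc lentivirus served as control. Three independent experiments.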

[1] = experiment: confirmatory screen 1, BHK/HA-Zeo (control)
[2] = experiment: confirmatory screen 1, BHK/NZAP-Zeo (ZAP)
[3] = experiment: confirmatory screen 2, BHK/HA-Zeo (control)
[4] = experiment: confirmatory screen 2, BHK/NZAP-Zeo (ZAP)
[5] = experiment: confirmatory screen 3, BHK/HA-Zeo (control)
[6] = experiment: confirmatory screen 3, BHK/NZAP-Zeo (ZAP)
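Also: Interferon-defective BHK-21 derivatives, ZAP line overexpressing the rat ZAP N-terminal zinc finger domain fused to Zeocin resistance, GFP scored within live singlet TagRFP+ cells.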

Substance: ABTB2
- percent infected [1]: 94.03 ± 0.73%
- percent infected [2]: 63.5 ± 5.5%
- percent infected [3]: 94.02 ± 0.29%
- percent infected [4]: 95.3 ± 0.29%
- percent infected [5]: 93.9 ± 2%
- percent infected [6]: 94.69 ± 0.42%

Substance: BTN3A3
- percent infected [1]: 82.3 ± 4%
- percent infected [2]: 57.5 ± 0.65%
- percent infected [3]: 93.48 ± 0.51%
- percent infected [4]: 95.55 ± 0.27%
- percent infected [5]: 90.09 ± 0.83%
- percent infected [6]: 89.4 ± 1.4%

Substance: ISG20
- percent infected [1]: 95.82 ± 0.88%
- percent infected [2]: 73.1 ± 2.4%
- percent infected [3]: 96.88 ± 0.17%
- percent infected [4]: 95.24 ± 0.15%
- percent infected [5]: 87 ± 2.5%
- percent infected [6]: 90.59 ± 0.73%

Substance: MAATEISVLSEQFTKIKELELMPEKGLKEEEKDGVCREKDHRSPSELEAERTSGAFQDSVLEEEVELVLAPSEESEKYILTLQTVHFTSEAVELQDMSLLSIQQQEGVQVVVQQPGPGLLWLEEGPRQSLQQCVAISIQQELYSPQEMEVLQFHALEENVMVASEDSKLAVSLAETTGLIKLEEEQEKNQLLAERTKEQLFFVETMSGDERSDEIVLTVSNSNVEEQEDQPTAGQADAEKAKSTKNQRKTKGAKGTFHCDVCMFTSSRMSSFNRHMKTHTSEKPHLCHLCLKTFRTVTLLRNHVNTHTGTRPYKCNDCNMAFVTSGELVRHRRYKHTHEKPFKCSMCKYASVEASKLKRHVRSHTGERPFQCCQCSYASRDTYKLKRHMRTHSGEKPYECHICHTRFTQSGTMKIHILQKHGENVPKYQCPHCATIIARKSDLRVHMRNLHAYSAAELKCRYCSAVFHERYALIQHQKTHKNEKRFKCKHCSYACKQERHMTAHIRTHTGEKPFTCLSCNKCFRQKQLLNAHFRKYHDANFIPTVYKCSKCGKGFSRWINLHRHSEKCGSGEAKSAASGKGRRTRKRKQTILKEATKGQKEAAKGWKEAANGDEAAAEEASTTKGEQFPGEMFPVACRETTARVKEEVDEGVTCEMLLNTMDK [CTCFL]
- percent infected [1]: 95.5 ± 1.9%
- percent infected [2]: 68 ± 7.4%
- percent infected [3]: 97.4 ± 0.23%
- percent infected [4]: 95.98 ± 0.22%
- percent infected [5]: 88.6 ± 1.2%
- percent infected [6]: 86.4 ± 0.91%

Substance: MAFF
- percent infected [1]: 92.89 ± 0.73%
- percent infected [2]: 70.1 ± 7.5%
- percent infected [3]: 94.1 ± 0.95%
- percent infected [4]: 93.98 ± 0.15%
- percent infected [5]: 93.24 ± 0.65%
- percent infected [6]: 91.23 ± 0.34%

Substance: MAGIELERCQQQANEVTEIMRNNFGKVLERGVKLAELQQRSDQLLDMSSTFNKTTQNLAQKKCWENIRYRICVGLVVVGVLLIILIVLLVVFLPQSSDSSSAPRTQDAGIASGPGN [VAMP5]
- percent infected [1]: 97.4 ± 0.76%
- percent infected [2]: 78.6 ± 3.2%
- percent infected [3]: 96.57 ± 0.3%
- percent infected [4]: 94.74 ± 0.23%
- percent infected [5]: 93.95 ± 0.59%
- percent infected [6]: 93.52 ± 0.17%

Substance: MAGPERWGPLLLCLLQAAPGRPRLAPPQNVTLLSQNFSVYLTWLPGLGNPQDVTYFVAYQSSPTRRRWREVEECAGTKELLCSMMCLKKQDLYNKFKGRVRTVSPSSKSPWVESEYLDYLFEVEPAPPVLVLTQTEEILSANATYQLPPCMPPLDLKYEVAFWKEGAGNKTLFPVTPHGQPVQITLQPAASEHHCLSARTIYTFSVPKYSKFSKPTCFLLEVPEANWAFLVLPSLLILLLVIAAGGVIWKTLMGNPWFQRAKMPRALDFSGHTHPVATFQPSRPESVNDLFLCPQKELTRGVRPTPRVRAPATQQTRWKKDLAEDEEEEDEEDTEDGVSFQPYIEPPSFLGQEHQAPGHSEAGGVDSGRPRAPLVPSEGSSAWDSSDRSWASTVDSSWDRAGSSGYLAEKGPGQGPGGDGHQESLPPPEFSKDSGFLEELPEDNLSSWATWGTLPPEPNLVPGGPPVSLQTLTFCWESSPEEEEEARESEIEDSDAGSWGAESTQRTEDRGRTLGHYMAR [IL28RA]
- percent infected [1]: 11.9 ± 5.4%
- percent infected [2]: 1.35 ± 0.22%
- percent infected [3]: 33 ± 1.4%
- percent infected [4]: 11.4 ± 0.84%
- percent infected [5]: 21.4 ± 1.5%
- percent infected [6]: 8.02 ± 0.72%

Substance: MALAPERAAPRVLFGEWLLGEISSGCYEGLQWLDEARTCFRVPWKHFARKDLSEADARIFKAWAVARGRWPPSSRGGGPPPEAETAERAGWKTNFRCALRSTRRFVMLRDNSGDPADPHKVYALSRELCWREGPGTDQTEAEAPAAVPPPQGGPPGPFLAHTHAGLQAPGPLPAPAGDKGDLLLQAVQQSCLADHLLTASWGADPVPTKAPGEGQEGLPLTGACAGGPGLPAGELYGWAVETTPSPGPQPAALTTGEAAAPESPHQAEPYLSPSPSACTAVQEPSPGALDVTIMYKGRTVLQKVVGHPSCTFLYGPPDPAVRATDPQQVAFPSPAELPDQKQLRYTEELLRHVAPGLHLELRGPQLWARRMGKCKVYWEVGGPPGSASPSTPACLLPRNCDTPIFDFRVFFQELVEFRARQRRGSPRYTIYLGFGQDLSAGRPKEKSLVLVKLEPWLCRVHLEGTQREGVSSLDSSSLSLCLSSANSLYDDIECFLMELEQPA [IRF7]
- percent infected [1]: 72 ± 5.6%
- percent infected [2]: 7.66 ± 2.9%
- percent infected [3]: 95.59 ± 0.13%
- percent infected [4]: 92 ± 0.75%
- percent infected [5]: 69.3 ± 3.4%
- percent infected [6]: 32.8 ± 18%

Substance: MALEIHMSDPMCLIENFNEQLKVNQEALEILSAITQPVVVVAIVGLYRTGKSYLMNKLAGKNKGFSVASTVQSHTKGIWIWCVPHPNWPNHTLVLLDTEGLGDVEKADNKNDIQIFALALLLSSTFVYNTVNKIDQGAIDLLHNVTELTDLLKARNSPDLDRVEDPADSASFFPDLVWTLRDFCLGLEIDGQLVTPDEYLENSLRPKQGSDQRVQNFNLPRLCIQKFFPKKKCFIFDLPAHQKKLAQLETLPDDELEPEFVQQVTEFCSYIFSHSMTKTLPGGIMVNGSRLKNLVLTYVNAISSGDLPCIENAVLALAQRENSAAVQKAIAHYDQQMGQKVQLPMETLQELLDLHRTSEREAIEVFMKNSFKDVDQSFQKELETLLDAKQNDICKRNLEASSDYCSALLKDIFGPLEEAVKQGIYSKPGGHNLFIQKTEELKAKYYREPRKGIQAEEVLQKYLKSKESVSHAILQTDQALTETEKKKKEAQVKAEAEKAEAQRLAAIQRQNEQMMQERERLHQEQVRQMEIAKQNWLAEQQKMQEQQMQEQAAQLSTTFQAQNRSLLSELQHAQRTVNNDDPCVLL [GBP5]
- percent infected [1]: 95.4 ± 1.4%
- percent infected [2]: 60 ± 5.7%
- percent infected [3]: 97.28 ± 0.17%
- percent infected [4]: 96.34 ± 0.093%
- percent infected [5]: 87.3 ± 1.1%
- percent infected [6]: 86.3 ± 0.93%

Substance: MALLDVCGAPRGQRPESALPVAGSGRRSDPGHYSFSMRSPELALPRGMQPTEFFQSLGGDGERNVQIEMAHGTTTLAFKFQHGVIAAVDSRASAGSYISALRVNKVIEINPYLLGTMSGCAADCQYWERLLAKECRLYYLRNGERISVSAASKLLSNMMCQYRGMGLSMGSMICGWDKKGPGLYYVDEHGTRLSGNMFSTGSGNTYAYGVMDSGYRPNLSPEEAYDLGRRAIAYATHRDSYSGGVVNMYHMKEDGWVKVESTDVSDLLHQYREANQ [PSMB8]
- percent infected [1]: 94.7 ± 1.4%
- percent infected [2]: 64.8 ± 5.2%
- percent infected [3]: 95.27 ± 0.2%
- percent infected [4]: 94.97 ± 0.39%
- percent infected [5]: 94.16 ± 0.23%
- percent infected [6]: 94.18 ± 0.46%

Substance: MALLLALSLLVLWTSPAPTLSGTNDAEDCCLSVTQKPIPGYIVRNFHYLLIKDGCRVPAVVFTTLRGRQLCAPPDQPWVERIIQRLQRTSAKMKRRSS [CCL19]
- percent infected [1]: 95.7 ± 1.2%
- percent infected [2]: 81.5 ± 1.8%
- percent infected [3]: 95.5 ± 0.73%
- percent infected [4]: 95.12 ± 0.1%
- percent infected [5]: 92.83 ± 0.53%
- percent infected [6]: 92.52 ± 0.47%

Substance: MAPEINLPGPMSLIDNTKGQLVVNPEALKILSAITQPVVVVAIVGLYRTGKSYLMNKLAGKKNGFSLGSTVKSHTKGIWMWCVPHPKKPEHTLVLLDTEGLGDIEKGDNENDSWIFALAILLSSTFVYNSMGTINQQAMDQLHYVTELTDRIKANSSPGNNSVDDSADFVSFFPAFVWTLRDFTLELEVDGEPITADDYLELSLKLRKGTDKKSKSFNDPRLCIRKFFPKRKCFVFDWPAPKKYLAHLEQLKEEELNPDFIEQVAEFCSYILSHSNVKTLSGGIPVNGPRLESLVLTYVNAISSGDLPCMENAVLALAQIENSAAVEKAIAHYEQQMGQKVQLPTETLQELLDLHRDSEREAIEVFMKNSFKDVDQMFQRKLGAQLEARRDDFCKQNSKASSDCCMALLQDIFGPLEEDVKQGTFSKPGGYRLFTQKLQELKNKYYQVPRKGIQAKEVLKKYLESKEDVADALLQTDQSLSEKEKAIEVERIKAESAEAAKKMLEEIQKKNEEMMEQKEKSYQEHVKQLTEKMERDRAQLMAEQEKTLALKLQEQERLLKEGFENESKRLQKDIWDIQMRSKSLEPICNIL [GBP2]
- percent infected [1]: 96.3 ± 0.94%
- percent infected [2]: 80.8 ± 0.62%
- percent infected [3]: 94.84 ± 0.44%
- percent infected [4]: 95.94 ± 0.23%
- percent infected [5]: 93.28 ± 0.57%
- percent infected [6]: 94.23 ± 0.41%

Substance: MAQASPPRPERVLGASSPEARPAQEALLLPTGVFQVAEKMEKRTCALCPKDVEYNVLYFAQSENIAAHENCLLYSSGLVECEDQDPLNPDRSFDVESVKKEIQRGRKLKCKFCHKRGATVGCDLKNCNKNYHFFCAKKDDAVPQSDGVRGIYKLLCQQHAQFPIIAQSAKFSGVKRKRGRKKPLSGNHVQPPETMKCNTFIRQVKEEHGRHTDATVKVPFLKKCKEAGLLNYLLEEILDKVHSIPEKLMDETTSESDYEEIGSALFDCRLFEDTFVNFQAAIEKKIHASQQRWQQLKEEIELLQDLKQTLCSFQENRDLMSSSTSISSLSY [PHF11]
- percent infected [1]: 76.3 ± 5.1%
- percent infected [2]: 50.3 ± 2.9%
- percent infected [3]: 91.99 ± 0.75%
- percent infected [4]: 93.69 ± 0.2%
- percent infected [5]: 89.11 ± 0.58%
- percent infected [6]: 89.89 ± 0.28%

Substance: MASGRARCTRKLRNWVVEQVESGQFPGVCWDDTAKTMFRIPWKHAGKQDFREDQDAAFFKAWAIFKGKYKEGDTGGPAVWKTRLRCALNKSSEFKEVPERGRMDVAEPYKVYQLLPPGIVSGQPGTQKVPSKRQHSSVSSERKEEEDAMQNCTLSPSVLQDSLNNEEEGASGGAVHSDIGSSSSSSSPEPQEVTDTTEAPFQGDQRSLEFLLPPEPDYSLLLTFIYNGRVVGEAQVQSLDCRLVAEPSGSESSMEQVLFPKPGPLEPTQRLLSQLERGILVASNPRGLFVQRLCPIPISWNAPQAPPGPGPHLLPSNECVELFRTAYFCRDLVRYFQGLGPPPKFQVTLNFWEESHGSSHTPQNLITVKMEQAFARYLLEQTPEQQAAILSLV [IRF9]
- percent infected [1]: 95.7 ± 1.1%
- percent infected [2]: 77.9 ± 2.2%
- percent infected [3]: 95.77 ± 0.51%
- percent infected [4]: 95.5 ± 0.37%
- percent infected [5]: 94.29 ± 0.52%
- percent infected [6]: 92.97 ± 0.35%

Substance: MASVAVDPQPSVVTRVVNLPLVSSTYDLMSSAYLSTKDQYPYLKSVCEMAENGVKTITSVAMTSALPIIQKLEPQIAVANTYACKGLDRIEERLPILNQPSTQIVANAKGAVTGAKDAVTTTVTGAKDSVASTITGVMDKTKGAVTGSVEKTKSVVSGSINTVLGSRMMQLVSSGVENALTKSELLVEQYLPLTEEELEKEAKKVEGFDLVQKPSYYVRLGSLSTKLHSRAYQQALSRVKEAKQKSQQTISQLHSTVHLIEFARKNVYSANQKIQDAQDKLYLSWVEWKRSIGYDDTDESHCAEHIESRTLAIARNLTQQLQTTCHTLLSNIQGVPQNIQDQAKHMGVMAGDIYSVFRNAASFKEVSDSLLTSSKGQLQKMKESLDDVMDYLVNNTPLNWLVGPFYPQLTESQNAQDQGAEMDKSSQETQRSEHKTH [ADFP]
- percent infected [1]: 91.4 ± 2%
- percent infected [2]: 68 ± 2.8%
- percent infected [3]: 96.84 ± 0.14%
- percent infected [4]: 95.665 ± 0.052%
- percent infected [5]: 88.3 ± 0.9%
- percent infected [6]: 89.1 ± 1.9%
